Measured values from IntAct's records for PubMed 26524528.

What was measured:
lmnb1_human LMNB1 [1] = biological target: lmnb1_human LMNB1 (UniProt P20700)
lmnb1_human LMNB1 [2] = biological target: lmnb1_human LMNB1 (UniProt P20700); remark: listed apart in the source
lmnb1_human LMNB1 [3] = biological target: lmnb1_human LMNB1 (UniProt P20700); remark: listed apart in the source

| effect of a mutation on the interaction (lmnb1_human LMNB1 [1]) | effect of a mutation on the interaction (lmnb1_human LMNB1 [2]) | effect of a mutation on the interaction (lmnb1_human LMNB1 [3]) | Substance |
| --- | --- | --- | --- |
| disrupting interaction strength | – | – | Microtubule-associated protein 1 light chain 3 beta (Homo sapiens) (from UniProt Q9GZQ8) R10A;R11A |
| – | decreasing interaction strength | disrupting interaction strength | Microtubule-associated protein 1 light chain 3 beta (Homo sapiens) (from UniProt Q9GZQ8) G120A |
